Measurements: article PMC12711917

Molecular target: 5-TAMRA-labeled human CaV1.2-IQ peptide (human)
Sequence (Q13936 1659-1692): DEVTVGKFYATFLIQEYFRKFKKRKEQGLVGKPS

**Q.** How did the f300 (calcium-dependent inactivation of the CaV1.2 channel; whole-cell voltage clamp of HEK293 cells co-transfected with human CaV1.2 α1C, β2a, α2δ and calmodulin) turn out when “calmodulin, wild type (from UniProt P0DP23 1-149) (natural protein)” was run?
**A.** 0.57
